Drawing on publication PMC6478713, “Structural insight into YcbB-mediated beta-lactam resistance in Escherichia coli” (Nature Communications, 2019), this text covers Kd for two molecules.

In assay [1] the target is T1, Escherichia coli YcbB (residue 31 onward), fluorescently labelled with Alexa Fluor 647 (Escherichia coli, UniProt P22525 31-615, Alexa Fluor 647 NHS Ester label (sites not given)).
T1 construct: L,D-transpeptidase YcbB (LdtD), E. coli, without its signal peptide (residues 1-30), residue 31 onward; Same construct as m1, labelled for the MST with PBP5; also called fluorescently labelled YcbB; source: E. coli BL21 (DE3), purified (HisTrap Ni2+, SEC Superdex 200), then labelled; not shown: His8, C-terminal, cleaved
T1 sequence: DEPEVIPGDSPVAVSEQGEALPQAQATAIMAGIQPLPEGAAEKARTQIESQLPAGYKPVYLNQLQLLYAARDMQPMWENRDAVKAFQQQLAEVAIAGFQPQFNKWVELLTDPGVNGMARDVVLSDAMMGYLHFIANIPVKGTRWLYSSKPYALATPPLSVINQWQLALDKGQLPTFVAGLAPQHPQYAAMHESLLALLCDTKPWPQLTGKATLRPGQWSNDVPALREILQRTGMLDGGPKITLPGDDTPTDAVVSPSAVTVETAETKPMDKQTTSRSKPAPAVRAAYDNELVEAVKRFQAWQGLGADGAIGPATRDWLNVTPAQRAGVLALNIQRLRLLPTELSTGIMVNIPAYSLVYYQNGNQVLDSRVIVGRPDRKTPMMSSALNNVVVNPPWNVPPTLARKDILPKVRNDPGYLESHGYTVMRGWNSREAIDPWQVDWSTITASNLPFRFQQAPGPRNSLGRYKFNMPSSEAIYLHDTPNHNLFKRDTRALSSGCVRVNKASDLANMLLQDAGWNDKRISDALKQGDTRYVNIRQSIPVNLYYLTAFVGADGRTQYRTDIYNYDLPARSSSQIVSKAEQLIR
Description: MST; Monolith NT.115Pico; unlabelled PBP5 (120 pM-98 uM) titrated into Alexa Fluor 647-labelled YcbB at 15 nM; Buffer C; analysed using MST; binding isotherm with adjustable Hill coefficient. As to conditions: both partners purified.

Assay [2] deals with T2, Escherichia coli PBP1b from residue 58 onward, styrene-maleic acid co-polymer solubilised, fluorescently … (Escherichia coli, UniProt P02919 58-844, Alexa Fluor 647 NHS Ester label (sites not given)).
T2 construct: Held in styrene-maleic acid co-polymer particles; Thrombin-cleavable tag; the purification paragraph calls the removed tag N-terminal, the cloning paragraph C-terminal; also called SMA-solubilised PBP1b; not shown: His8, C-terminal, cleaved
T2 sequence: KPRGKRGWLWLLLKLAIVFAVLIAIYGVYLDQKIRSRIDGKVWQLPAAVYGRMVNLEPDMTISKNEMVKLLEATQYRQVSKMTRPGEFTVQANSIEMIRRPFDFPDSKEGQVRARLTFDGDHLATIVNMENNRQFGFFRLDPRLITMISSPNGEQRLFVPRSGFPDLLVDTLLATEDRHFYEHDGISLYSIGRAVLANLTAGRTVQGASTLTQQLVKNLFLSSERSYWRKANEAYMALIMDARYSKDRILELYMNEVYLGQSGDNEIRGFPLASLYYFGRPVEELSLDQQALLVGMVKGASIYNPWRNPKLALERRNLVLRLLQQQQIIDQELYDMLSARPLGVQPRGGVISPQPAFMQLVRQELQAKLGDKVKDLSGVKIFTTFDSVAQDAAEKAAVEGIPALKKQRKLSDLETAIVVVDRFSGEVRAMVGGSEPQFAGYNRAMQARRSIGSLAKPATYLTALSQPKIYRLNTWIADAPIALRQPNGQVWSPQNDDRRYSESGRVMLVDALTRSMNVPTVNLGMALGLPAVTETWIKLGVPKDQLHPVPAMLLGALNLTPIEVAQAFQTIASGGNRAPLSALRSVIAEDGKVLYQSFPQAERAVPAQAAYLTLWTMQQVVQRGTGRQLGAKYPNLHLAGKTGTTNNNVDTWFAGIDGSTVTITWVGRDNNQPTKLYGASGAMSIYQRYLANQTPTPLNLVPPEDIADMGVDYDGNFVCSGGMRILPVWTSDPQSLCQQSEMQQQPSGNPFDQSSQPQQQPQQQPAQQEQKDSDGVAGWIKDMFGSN
Description: MST; Monolith NT.115Pico; unlabelled YcbB (1.5 nM-3.1 uM) titrated into Alexa Fluor 647-labelled SMA-solubilised PBP1b at 100 nM; Buffer C; analysed using fluorescence values; binding isotherm with adjustable Hill coefficient. The note with it: both partners purified.

B1: Escherichia coli PBP5 from residue 30 onward (enzyme)
chain: DDLNIKTMIPGVPQIDAESYILIDYNSGKVLAEQNADVRRDPASLTKMMTSYVIGQAMKAGKFKETDLVTIGNDAWATGNPVFKGSSLMFLKPGMQVPVSQLIRGINLQSGNDACVAMADFAAGSQDAFVGLMNSYVNALGLKNTHFQTVHGLDADGQYSSARDMALIGQALIRDVPNEYSIYKEKEFTFNGIRQLNRNGLLWDNSLNVDGIKTGHTDKAGYNLVASATEGQMRLISAVMGGRTFKGREAESKKLLTWGFRFFETVNPLKVGKEFASEPVWFGDSDRASLGVDKDVYLTIPRGRMKDLKASYVLNSSELHAPLQKNQVVGTINFQLDGKTIEQRPLVVLQEIPEGNFFGKIIDYIKLMFHHWFG
notes: HRV 3C protease-cleavable tag; the purification paragraph calls the removed tag N-terminal, the cloning paragraph C-terminal; also called D,D-carboxypeptidase PBP5; source: E. coli BL21 (DE3), purified (HisTrap Ni2+, SEC Superdex 200); not shown: His8, C-terminal, cleaved
The term Kd denotes the constant that tells how readily two partners part at equilibrium. In the case of B1, in assay [1], the Kd is ~2 µM.

B2: Escherichia coli YcbB without its signal peptide (residue 31 onward) (enzyme)
chain: DEPEVIPGDSPVAVSEQGEALPQAQATAIMAGIQPLPEGAAEKARTQIESQLPAGYKPVYLNQLQLLYAARDMQPMWENRDAVKAFQQQLAEVAIAGFQPQFNKWVELLTDPGVNGMARDVVLSDAMMGYLHFIANIPVKGTRWLYSSKPYALATPPLSVINQWQLALDKGQLPTFVAGLAPQHPQYAAMHESLLALLCDTKPWPQLTGKATLRPGQWSNDVPALREILQRTGMLDGGPKITLPGDDTPTDAVVSPSAVTVETAETKPMDKQTTSRSKPAPAVRAAYDNELVEAVKRFQAWQGLGADGAIGPATRDWLNVTPAQRAGVLALNIQRLRLLPTELSTGIMVNIPAYSLVYYQNGNQVLDSRVIVGRPDRKTPMMSSALNNVVVNPPWNVPPTLARKDILPKVRNDPGYLESHGYTVMRGWNSREAIDPWQVDWSTITASNLPFRFQQAPGPRNSLGRYKFNMPSSEAIYLHDTPNHNLFKRDTRALSSGCVRVNKASDLANMLLQDAGWNDKRISDALKQGDTRYVNIRQSIPVNLYYLTAFVGADGRTQYRTDIYNYDLPARSSSQIVSKAEQLIR
notes: L,D-transpeptidase YcbB (LdtD), E. coli, without its signal peptide (residues 1-30), residue 31 onward; Unlabelled form: titrant in the MST with PBP1b and the protein that was crystallised (there acylated by meropenem on Cys528); Vector named pET41b-GST; no GST on the protein is spoken of; Thrombin-cleavable tag; the purification paragraph calls the removed tag N-terminal, the cloning paragraph …
In turn, B2 yielded a Kd in assay [2] of 0.25 ± 0.03 µM.
